Test results taken from patent US20250163162A1 (SYNTHEKINE, published 2025).

Key:
Assay in all cases: cell-based or functional assay
IL10Rα/IL2Rγ receptor [1] = molecular target: T1, IL10Rα/IL2Rγ receptor (human, UniProt Q13651 22-578; P31785 23-369)
T1 sequence (looked up) 1: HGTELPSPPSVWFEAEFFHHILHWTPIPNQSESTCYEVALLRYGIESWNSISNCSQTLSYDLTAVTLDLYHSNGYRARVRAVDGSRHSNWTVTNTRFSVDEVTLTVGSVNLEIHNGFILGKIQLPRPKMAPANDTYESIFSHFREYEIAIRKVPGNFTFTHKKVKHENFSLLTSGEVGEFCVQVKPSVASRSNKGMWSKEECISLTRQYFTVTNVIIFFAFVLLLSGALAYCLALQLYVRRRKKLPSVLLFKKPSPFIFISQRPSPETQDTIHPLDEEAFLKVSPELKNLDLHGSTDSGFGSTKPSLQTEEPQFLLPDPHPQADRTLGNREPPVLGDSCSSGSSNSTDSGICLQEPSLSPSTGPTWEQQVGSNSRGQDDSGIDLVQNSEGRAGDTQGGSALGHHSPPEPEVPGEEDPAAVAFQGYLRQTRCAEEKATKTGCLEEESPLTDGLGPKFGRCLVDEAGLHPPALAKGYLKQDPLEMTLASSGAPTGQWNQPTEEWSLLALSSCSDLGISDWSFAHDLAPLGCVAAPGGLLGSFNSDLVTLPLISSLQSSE
T1 sequence (looked up) 2: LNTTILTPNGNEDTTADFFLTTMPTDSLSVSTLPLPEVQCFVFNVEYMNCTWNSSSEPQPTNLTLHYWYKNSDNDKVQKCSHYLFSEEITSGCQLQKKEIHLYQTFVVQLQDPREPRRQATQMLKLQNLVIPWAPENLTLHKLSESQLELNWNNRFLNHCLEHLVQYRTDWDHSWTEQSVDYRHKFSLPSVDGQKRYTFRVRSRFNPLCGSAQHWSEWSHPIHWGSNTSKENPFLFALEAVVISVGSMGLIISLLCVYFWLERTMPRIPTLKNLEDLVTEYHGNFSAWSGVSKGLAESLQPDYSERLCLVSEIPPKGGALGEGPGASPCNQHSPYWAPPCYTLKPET

IL10Rα/IL2Rγ receptor [2] = molecular target: T1, IL10Rα/IL2Rγ receptor; remark: listed apart in the source
IL10Rα/IL2Rγ receptor [3] = molecular target: T1, IL10Rα/IL2Rγ receptor; remark: listed apart in the source
IL10Rα/IL2Rγ receptor [4] = molecular target: T1, IL10Rα/IL2Rγ receptor; remark: listed apart in the source
IL10Rα/IL2Rγ receptor [5] = molecular target: T1, IL10Rα/IL2Rγ receptor; remark: listed apart in the source
IL10Rα/IL2Rγ receptor [6] = molecular target: T1, IL10Rα/IL2Rγ receptor; remark: listed apart in the source

pSTAT3 MFI, CD8 T cells, 0.0001 nM (unstimulated 1446) (IL10Rα/IL2Rγ receptor [1]): 1380 MFI | pSTAT3 MFI, CD8 T cells, 0.001 nM (unstimulated 1446) (IL10Rα/IL2Rγ receptor [1]): 1420 MFI | pSTAT3 MFI, CD8 T cells, 0.01 nM (unstimulated 1446) (IL10Rα/IL2Rγ receptor [1]): 1400 MFI | pSTAT3 MFI, CD8 T cells, 0.1 nM (unstimulated 1446) (IL10Rα/IL2Rγ receptor [1]): 1800 MFI | pSTAT3 MFI, CD8 T cells, 1 nM (unstimulated 1446) (IL10Rα/IL2Rγ receptor [1]): 3320 MFI | pSTAT3 MFI, CD8 T cells, 10 nM (unstimulated 1446) (IL10Rα/IL2Rγ receptor [1]): 3880 MFI | pSTAT3 MFI, CD8 T cells, 100 nM (unstimulated 1446) (IL10Rα/IL2Rγ receptor [1]): 3450 MFI | pSTAT3 MFI, B cells, 0.0001 nM (unstimulated 1193.5) (IL10Rα/IL2Rγ receptor [2]): 1130 MFI | pSTAT3 MFI, B cells, 0.001 nM (unstimulated 1193.5) (IL10Rα/IL2Rγ receptor [2]): 1130 MFI | pSTAT3 MFI, B cells, 0.01 nM (unstimulated 1193.5) (IL10Rα/IL2Rγ receptor [2]): 1140 MFI | pSTAT3 MFI, B cells, 0.1 nM (unstimulated 1193.5) (IL10Rα/IL2Rγ receptor [2]): 1150 MFI | pSTAT3 MFI, B cells, 1 nM (unstimulated 1193.5) (IL10Rα/IL2Rγ receptor [2]): 1260 MFI | pSTAT3 MFI, B cells, 10 nM (unstimulated 1193.5) (IL10Rα/IL2Rγ receptor [2]): 1340 MFI | pSTAT3 MFI, B cells, 100 nM (unstimulated 1193.5) (IL10Rα/IL2Rγ receptor [2]): 1360 MFI | pSTAT3 MFI, B cells, 100 nM (unstimulated 1045) (IL10Rα/IL2Rγ receptor [3]): 1030 MFI | pSTAT3 MFI, CD4+ T cells, 100 nM (unstimulated 1778) (IL10Rα/IL2Rγ receptor [3]): 3570 MFI | pSTAT3 MFI, CD8+ T cells, 100 nM (unstimulated 1288) (IL10Rα/IL2Rγ receptor [3]): 2700 MFI | pSTAT3 MFI, Monocytes, 100 nM (unstimulated 1787) (IL10Rα/IL2Rγ receptor [3]): 2020 MFI | pSTAT3 MFI, NK cells, 100 nM (unstimulated 1149) (IL10Rα/IL2Rγ receptor [3]): 1430 MFI | pSTAT3 MFI, Monocytes, 0.0001 nM (unstimulated 2116) (IL10Rα/IL2Rγ receptor [4]): 2060 MFI | pSTAT3 MFI, Monocytes, 0.001 nM (unstimulated 2116) (IL10Rα/IL2Rγ receptor [4]): 2060 MFI | pSTAT3 MFI, Monocytes, 0.01 nM (unstimulated 2116) (IL10Rα/IL2Rγ receptor [4]): 2020 MFI | pSTAT3 MFI, Monocytes, 0.1 nM (unstimulated 2116) (IL10Rα/IL2Rγ receptor [4]): 2020 MFI | pSTAT3 MFI, Monocytes, 1 nM (unstimulated 2116) (IL10Rα/IL2Rγ receptor [4]): 2210 MFI | pSTAT3 MFI, Monocytes, 10 nM (unstimulated 2116) (IL10Rα/IL2Rγ receptor [4]): 2340 MFI | pSTAT3 MFI, Monocytes, 100 nM (unstimulated 2116) (IL10Rα/IL2Rγ receptor [4]): 2440 MFI | pSTAT3 MFI, CD4 T cells, 0.0001 nM (unstimulated 1887) (IL10Rα/IL2Rγ receptor [5]): 1800 MFI | pSTAT3 MFI, CD4 T cells, 0.001 nM (unstimulated 1887) (IL10Rα/IL2Rγ receptor [5]): 1870 MFI | pSTAT3 MFI, CD4 T cells, 0.01 nM (unstimulated 1887) (IL10Rα/IL2Rγ receptor [5]): 1890 MFI | pSTAT3 MFI, CD4 T cells, 0.1 nM (unstimulated 1887) (IL10Rα/IL2Rγ receptor [5]): 2450 MFI | pSTAT3 MFI, CD4 T cells, 1 nM (unstimulated 1887) (IL10Rα/IL2Rγ receptor [5]): 4570 MFI | pSTAT3 MFI, CD4 T cells, 10 nM (unstimulated 1887) (IL10Rα/IL2Rγ receptor [5]): 5180 MFI | pSTAT3 MFI, CD4 T cells, 100 nM (unstimulated 1887) (IL10Rα/IL2Rγ receptor [5]): 4670 MFI | pSTAT3 MFI, NK cells, 0.0001 nM (unstimulated 1315) (IL10Rα/IL2Rγ receptor [6]): 1260 MFI | pSTAT3 MFI, NK cells, 0.001 nM (unstimulated 1315) (IL10Rα/IL2Rγ receptor [6]): 1270 MFI | pSTAT3 MFI, NK cells, 0.01 nM (unstimulated 1315) (IL10Rα/IL2Rγ receptor [6]): 1260 MFI | pSTAT3 MFI, NK cells, 0.1 nM (unstimulated 1315) (IL10Rα/IL2Rγ receptor [6]): 1310 MFI | pSTAT3 MFI, NK cells, 1 nM (unstimulated 1315) (IL10Rα/IL2Rγ receptor [6]): 1640 MFI | pSTAT3 MFI, NK cells, 10 nM (unstimulated 1315) (IL10Rα/IL2Rγ receptor [6]): 1800 MFI | pSTAT3 MFI, NK cells, 100 nM (unstimulated 1315) (IL10Rα/IL2Rγ receptor [6]): 1760 MFI
B1: DR395(DR229-DR239) (bispecific antibody)
chain: QVQLQESGGGLVQPGGSLRLSCTASGFSFSSYPMTWARQAPGKGLEWVSTIASDGGSTAYAASVEGRFTISRDNAKSTLYLQLNSLKTEDTAMYYCTKGYGDGTPAPGQGTQVTVSSGGGSQVQLQESGGGSVQAGGSLRLSCTVSGYTYSSNCMGWFRQAPGKEREGVATIYTGGGNTYYADSVKGRFTISQDNAKNTVYLQMNNLKPEDTAMYYCAAEPLSRVYGGSCPTPTFDYWGQGTQVTVSSASHHHHHH
